Patent publication US9555139B2, “Binding ligand linked drug delivery conjugates of tubulysins” (Endocyte, Inc., priority 2007, dated 2017)

How the values were obtained:
[1] = Toxicity as measured by weight loss / organ evaluation in tumor-bearing mice; assay type: in vivo
Method: METHOD: Drug Toxicity determinations. Persistent drug toxicity was assessed by collecting blood via cardiac puncture and submitting the serum for independent analysis of blood urea nitrogen (BUN), creatinine, total protein, AST-SGOT, ALT-SGPT plus a standard hematological cell panel at Ani-Lytics, Inc. (Gaithersburg, Md.). In addition, histopathologic evaluation of formalin-fixed heart, lungs, liver, spleen, kidney, intestine, skeletal muscle and bone (tibia/fibula) were conducted by board-certified pathologists at Animal Reference Pathology Laboratories (ARUP; Salt Lake City, Utah).
METHOD: Toxicity as Measured by Weight Loss.

[2] = Body weight change of Balb/c mice at doses above therapeutic doses (FIG. 14); conditions: intravenous, three times in one week (FIG. 14)
Method: METHOD: Toxicity as Measured by Weight Loss. The percentage weight change of the mice was determined in mice (5 mice/group) on selected days post-tumor inoculation (PTI), and graphed.
Each dose was administered three times, every other day, as indicated by the arrows. EC0305 was administered at (Δ) 2 μmol/kg TIW; (∇) 2.5 μmol/kg TIW; and (□) 3 μmol/kg.

Human serum stability = assay type: in vitro ADME
Description: METHOD: Human serum stability.

[3] = Serum binding, human serum; assay type: in vitro ADME
Method: (§1) METHOD: Serum binding against different species. Compounds are tested with 30K NMWL, subjected to Microcon filtration (10,000 g for 30 minutes), and compounds are detected by HPLC.

[4] = Serum binding against different species; assay type: in vitro ADME; conditions: human, dog, Balb/c mouse, rat, rabbit, fetal calf serum
Method: as §1

folate receptors (FRs) = target: T1, folate receptors (FRs) (Homo sapiens, UniProt P15328); assay: Relative affinity assay (3H-folic acid displacement on KB cells); assay type: binding; conditions: 10% serum/FDRPMI; folic acid set to 1
T1 construct: FR-positive KB cells were heavily seeded into 24-well cell culture plates; endogenous in cells; host or cells: KB cells
T1 sequence (P15328 25-234): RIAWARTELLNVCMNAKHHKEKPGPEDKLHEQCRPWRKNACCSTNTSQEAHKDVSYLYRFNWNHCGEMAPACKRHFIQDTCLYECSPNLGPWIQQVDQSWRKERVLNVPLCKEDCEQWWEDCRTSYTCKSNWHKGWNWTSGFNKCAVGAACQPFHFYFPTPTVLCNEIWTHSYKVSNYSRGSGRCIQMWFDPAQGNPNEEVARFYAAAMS
Method: METHOD: Relative Affinity Assay. The affinity for folate receptors (FRs) relative to folate was determined according to a previously described method (Westerhof, G. R., J. H. Schornagel, et al. (1995) Mol. Pharm. 48: 459-471) with slight modification. Briefly, FR-positive KB cells were heavily seeded into 24-well cell culture plates and allowed to adhere to the plastic for 18 h. Spent incubation media was replaced in designated wells with folate-free RPMI (FFRPMI) supplemented with 100 nM ^3H-folic acid in the absence and presence of increasing concentrations of test article or folic acid. Cells were incubated for 60 min at 37° C. and then rinsed 3 times with PBS, pH 7.4. Five hundred microliters of 1% SDS in PBS, pH 7.4, were added per well. Cell lysates were then collected and added to individual vials containing 5 mL of scintillation cocktail, and then counted for radioactivity. Negative control tubes contained only the ^3H-folic acid in FFRPMI (no competitor). Positive control tubes contained a final concentration of 1 mM folic acid, and CPMs measured in these samples (representing non-specific binding of label) were subtracted from all samples.

s.c. tumors = assay: Inhibition of tumor growth in mice (tumor model not stated, FIG. 9 and 11); assay type: in vivo; conditions: tolerable and highly toxic dose levels (0.1, 0.2, 0.5 μmol/kg TIW), dosing terminated early
Method: METHOD: Inhibition of Tumor Growth in Mice. Four to seven week-old mice (Balb/c or nu/nu strains) were purchased from Harlan Sprague Dawley, Inc. (Indianapolis, Ind.). Normal rodent chow contains a high concentration of folic acid (6 mg/kg chow); accordingly, mice used were maintained on the folate-free diet (Harlan diet #TD00434) for 1 week before tumor implantation to achieve serum folate concentrations close to the range of normal human serum. For tumor cell inoculation, 1×10^6 M109 cells (Balb/c strain) or 1×10^6 KB cells (nu/nu strain) in 100 μL were injected in the subcutis of the dorsal medial area. Tumors were measured in two perpendicular directions every 2-3 days using a caliper, and their volumes were calculated as 0.5×L×W^2, where L=measurement of longest axis in mm and W=measurement of axis perpendicular to L in mm. […] Dosing solutions were prepared fresh each day in PBS and administered through the lateral tail vein of the mice.

SMILES: CCCC(=O)OCN(C(=O)[C@@H](NC(=O)[C@H]1CCCCN1C)C(C)CC)[C@H](C[C@@H](OC(C)=O)c1nc(C(=O)N[C@@H](Cc2ccc(O)cc2)C[C@H](C)C(=O)NNC(=O)OCCSSC[C@H](NC(=O)[C@H](CC(=O)O)NC(=O)[C@H](CCCNC(=N)N)NC(=O)[C@H](CC(=O)O)NC(=O)CC[C@H](NC(=O)c2ccc(NCc3cnc4nc(N)[nH]c(=O)c4n3)cc2)C(=O)O)C(=O)O)cs1)C(C)C (stereo partly drawn) [EC0305]
- weight loss or major organ tissue degeneration ([1]; Balb/c mice with M109 tumors (FIG. 8)): apparent absence of weight loss or major organ tissue degeneration
- gross toxicity as determined by changes in weight ([1]; M109 tumor mice (FIG. 13), 2 μmol/kg TIW, 2 wks): not accompanied by any observed gross toxicity
- weight loss or major organ tissue degeneration ([1]; nu/nu mice with KB tumors (FIG. 6)): apparent absence of weight loss or major organ tissue degeneration
- dose at which toxicity begins, as determined by changes in weight [2]: ≥ 2.5 µmol/kg
- half-life (Human serum stability): ~20 h
- fraction unbound [3]: 0.33
- serum binding [3]: 67%
- serum binding in various species [4]: low serum binding

SMILES: Nc1nc2ncc(CNc3ccc(C(=O)N[C@@H](CCC(=O)O)C(=O)O)cc3)nc2c(=O)[nH]1 [folic acid]
- relative affinity (folate receptors (FRs)): 1

SMILES: CCCC(=O)OCN(C(=O)[C@@H](NC(=O)[C@H]1CCCCN1C)C(C)CC)[C@H](C[C@@H](OC(C)=O)c1nc(C(=O)N[C@@H](Cc2ccc(O)cc2)C[C@H](C)C(=O)O)cs1)C(C)C (stereo partly drawn) [tubulysin B, reference compound]
- toxicity (dosing terminated early in each cohort) ([1]; FIG. 9 and 10, 0.1, 0.2, 0.5 μmol/kg TIW): excessive toxicity
- change in percent body weight ([1]; FIG. 10, 0.1, 0.2, 0.5 μmol/kg TIW, compared to controls): dramatic change
- complete or partial responses (s.c. tumors): 0/5
